Assay: soluble on expression in E. coli; label from the status in PepcDB or PDB records

For “MGSDKIHHHHHHMGENMKILISVCGEGFGHTTRCVAIGEALKNDYEISYIAYGKSKNFIEKYGFKVFETFPEIKLKGKDGKFDITSSILNKEYSPKKAIRREINIIREYNPDLIISDCKYSTVVAAKLLKKPVICISNQNYTRYKLKTDLIVYPTMKALNIINERCERFIVPDFPLPYTICEYNLKIIKNMEFIGPLIRYDVDDVDNYGEDYILSVIGGFEYRYKILEELGKIALKNNLNVKLVCGSYEVAKKLMRDLNLNSYKNENVEIIPITTNMKELIKNAELIVSHGGHSTIMEALSFGKPLIVIPDLDHPEQGNNAKKVHDLGCGIALSYKELYRLEEAILDIRNMKMYKRNASKMKELAKKYDGKKNIKKIIDEFFETRKNIRKYYLTDRIANKLINKFKLKIR”, which “soluble on expression in E. coli” value is on record?
The value was “not soluble”.

Which “soluble on expression in E. coli” value does the source give for “MNDTSFENCIKCTVCTTACPVSRVNPGYPGPKQAGPDGERLRLKDGALYDEALKYCINCKRCEVACPSDVKIGDIIQRARAKYDTTRPSLRNFVLSHTDLMGSVSTPFAPIVNTATSLKPVRQLLDAALKIDHRRTLPKYSFGTFRRWYRSIAAQQAQYKDQVAFFHGCFVNYNHPQLGKDLIKVLNAMGTGVQLLSKEKCCGVPLIANGFTDKARKQAITNVESIREAVGVKGIPVIATSSTCTFALRDEYPEVLNVDNKGLRDHIELATRWLWRKLDEGKTLPLKPLPLKVVYHTPCHMEKMGWTLYTLELLRNIPGLELTVLDSQCCGIAGTYGFKKENYPTSQAIGAPLFRQIEESGADLVVTDCETCKWQIEMSTSLRCEHPITLLAQALA” here?
The value was “not soluble”.

For “MSLLLTNHIGYERLGPKKAIIQTEQPHLSSYTAQLICATSEQTVATFAVEEQGKVANWHQGYFYLIDFSSFTDSGDYFLQVEDSRSSTFTVGEHILLNQTLSDVIHYFKSQRCGGVFDQQDRQVPVLNANQTADVHGGWYDASGDVSKYLSHLSYANYLNPQQTPMVVWNILKGLSLLEGSEDIAAFTRTRLIEEALFGADFLVRMQNEKGFFYMTVFDKWSKDTAQREICAYETQLGHKFDDYQAGFRQGGGVAIAALAAASRLGVHGEYDQQKYRNAAENGYWHLKEHNTQYLNDGEENIIDEYCALLASVELFKATKETRYLEESRLWAQRLVARQMSDEQIQHFWSANQDGSRPYFHAAEAGLPTIALCEYLAIEDDSVQTESVKCIVNRACEFEIKISNKVTNPFGYPRQYVKGVNESKRDAFFVAHNNESGYWWQGENARLGSLATMAYLAQPHIASQEIQQQLSVFAQDALNWIVGLNPYDMCMLDGHGRNNPDYLPQYGFFNAKGGVCNGITGGFEDEEDIAFNPPAQKDDMLQNWRWGEQWIPHGAWYLLAIMSQAQHISQLATSKNIKEGHHHHHH”, which “soluble on expression in E. coli” value is on record?
The value was “soluble”.

With “SLSSPLLPAPVCNPNKAIFTVDAKTTEILVANDKACGLLGYSSQDLIGQKLTQFFLRSDSDVVEALSEEHMEADGHAAVVFGTVVDIISRSGEKIPVSVWMKRMRQERRLCCVVVLEPVER” as the sequence, how does the “soluble on expression in E. coli” value read?
The value was “soluble”.

With “MAHHHHHHMVDDILKCIHNEFKYVLISCDINNEIKELTFKGSEEKFQNTLGSYFRRIIFDEKGKDELKESIKEKLKTNDKNDEDKEKVNTISPDIINNAIESSQTYQIIPLTIPNEKNDFLGINCYIDDIGRIKKLPYNSRASRICSTEIYGDAFLSKTYDNEDFKRCDFTISEYDEFLKNPPKSENRWDQAQAMQNLLKQMKGQNDAGVNDEAPTEKVNACEHCYKEQNLKRCGRCKKVYYCSVECQKSDYVFHKRICS” as the sequence, how does the “soluble on expression in E. coli” value read?
Its value is “soluble”.

For “ATALAGSNGVCIAYYITDGRNPTFKLKDIPDKVDMVILFGLKYWSLQDTTKLPGGTGMMGSFKSYKDLDTQIRSLQSRGIKVLQNIDDDVSWQSSKPGGFASAAAYGDAIKSIVIDKWKLDGISLDIEHSGAKPNPIPTFPGYAATGYNGWYSGSMAATPAFLNVISELTKYFGTTAPNNKQLQIASGIDVYAWNKIMENFRNNFNYIQLQSYGANVSRTQLMMNYATGTNKIPASKMVFGAYAEGGTNQANDVEVAKWTPTQGAKGGMMIYTYNSNVSYANAVRDAVKN”, which “soluble on expression in E. coli” value is on record?
The value was “soluble”.

With “MMDEEGAALPVWSRRLQQLTERSGLSQAELARRAGMSRDTYNRYCRGLTRPPRKKVLALAELFGVETWEIDPLEAGIAALRRESERSLEALGEQPIPSTPPYTLSPPSSGDPRMMHLRVDVDVRIETALRIAELLNREGSS” as the sequence, how does the “soluble on expression in E. coli” value read?
Its value is “not soluble”.

For “MVVGGFGVGKTTMVRSVSEIRPLNTEETMTQAGEAVDDISEVRGKSATTVAFDFGRISLDARNVLYLFGAPGQERFWFLWDRLFSGTLGAVVLVDTRRIDDSWYAIDRLEHHGTPFIVACNDFGGPEHSPEAVREALDLDPRVPLVSCDARSRQSSKQVLITLVEHLQAHYAGPTARPRQEFALEHHHHHH”, which “soluble on expression in E. coli” value is on record?
Its value is “not soluble”.

With “LRDFNYSIAGNLTWARNKVIDLLEPAGEKNNPRQRSTGHSMSQYFGYEALGLFQSDEEANNWPQPQFGKAKAGDIKYKDQNGDGIIDAEDEIAIGRSNYPELVYGLNLNAEWKGFDITFFFQGAALADFYYNGYLAFPYIEGRGGALLEHHIGNTWTPENPKAEFPRLYYGGNANNQLFSSFWMRNGSYLRLKNVEIGYDFKKLLLSKVSEIQGLRLYFSGSNLLTWSQIKYFDPELRSTDGSAYPQMKTFVFGANITF” as the sequence, how does the “soluble on expression in E. coli” value read?
The value was “not soluble”.

With “MGSDKIHHHHHHMKTKMPEMLSFISEEAVSRKMTSEEIAAHFGYDKHHFSRKFKEINGFSVVEFLSSLKVEKAIIELNEEKRILDLQEHSGFESSGSFTNTFKKYTGSSPRKYKTEMNDIFYDMKRFENDNKDKSIAHFQEKNDSFCTVTIDVPDEFEKGIIFIGLFRTLIPNHMPISGLATKNLIGNQLKNIPSGDYYLLACAISQSNNILSYFNLSNSLRGKEDEKLSFPKCSGKHYAIKLREPIPEDPPILANVGKILISCLKNTI” as the sequence, how does the “soluble on expression in E. coli” value read?
Its value is “not soluble”.

For “MDNGWPNLQTLALFVAIVEEGSLGAGARKVGMAQPNASRAIAELEADMKAELLVRHPRGSHPTAAGLALVEHSRDLLQSVQEFTEWVTEGRTEQPLKLHVGASMTIAEALLPAWVADMRTRFPACRVDVSVMNSSQVIEAVQKGHLQLGFIETPHVPVRLHARVVQEDKLIVVISPNHEWANRTGRISLRELSETPLIVREVGSGTREALQELLADYDMAEPIQVLNSNAAVRVVVEAGAGPAVLGELALRDHLALGRLLSVPFEGSGVTRPLTAVWSGPRRLPILAGELVSIASNHI”, which “soluble on expression in E. coli” value is on record?
The value was “not soluble”.

For “MIYRFTIISDEVDDFVREIQIDPEATFLDFHEAILKSVGYTNDQMTSFFICDDDWEKEKEVTLEEMDDNPEMDSWIMKETTISELVEDEKQKLLYVFDYMTERCFFIELSEIITGKDMNGAKCTKKSGDAPPQTVDFEEMAAASGSLDLDENFYGDQDFDMEDFDQEGFDIGGNAGGSYEEEKFLEHHHHHH”, which “soluble on expression in E. coli” value is on record?
The value was “soluble”.

With “TRGGDSAAAPLDPPKSTATRCLSCNKKVGVTGFKCRCGSTFCGTHRYPESHECQFDFKGVA” as the sequence, how does the “soluble on expression in E. coli” value read?
The value was “soluble”.

With “MAHHHHHHMPSGERRGRVGPVRFRTFLRNTVLDVMRSRGWLETDSDLGWDLFWADVGWIREVHDHVRLDDVQRINHFRNHFELTRKDFMVKNLKRMRKSLEREGRLEEATEFDFFPVTFSLPQDYGMFETEFRRQPNAIWIMKPPAKAQGKGIFLFSKISQIAEWRKDYKQRQVGAVGEKAGGPYGAEQVEPYLAQRYIENPHLVGGKKYDLRVYVLVTCYSPLTVWLHRTGFARFCHQRFSLRDIENTFIHVTNVAVQKTNPKYTPSSGCKYGLRNLRQYITASRGVETAQKLFDDIQNMILRSLHAVQKIIVQDKHCFELYGYDIMVDNDLHPWLIETNASPSLSAETPADYHLKFNMLEDMFSVIDIEKRRTGDEIRVGGFDLIWKNGPVGPACRGDAKGGGVTQSFLGCANELEIPISHMRMPPRLQQMDSSERLLT” as the sequence, how does the “soluble on expression in E. coli” value read?
Its value is “not soluble”.

For “MSLQTDDPMIVAHRAGTRDFPENTVLAITNAVAAGVDGMWLTVQVSSDGVPVLYRPSDLATLTDGAGPVNSKTVQQLQQLNAGWNFTTPGVEGHPYRQRATPIPTLEQAIGATPPDMTLFLDLKQTPPQPLVSAVAQVLTRTGAAGRSIVYSTNADITAAASRQEGLQVAESRDVTRQRLFNMALNHHCDPQPDPGKWAGFELHRDVTVTEEFTLGSGISAVNAELWDEASVDCFRSQSGMKVMGFAVKTVDDYRLAHKIGLDAVLVDSPLAAQQWRHEGHHHHHH”, which “soluble on expression in E. coli” value is on record?
Its value is “not soluble”.

Which “soluble on expression in E. coli” value does the source give for “SEEDNRAPQLWRKTLTAPAPFADETNCQCQAPHEKLTIAQARLGTPADRPVRVYADGIFDLFHSGHARALMQAKTLFPNSYLLVGVCSDDLTHKFKGFTVMNEAERYEALRHCRYVDEVIRDAPWTLTPEFLEKHKIDFVAHDDIPYSSAGSDDVYKHIKEAGMFVPTQRTEGISTSDIITRIVRDYDVYARRNLQRGYTAKELNVSFINEKRYRFQNQVDKMKEKVKNVEERSKEFVNRVEEKSHDLIQKWEEKSREFIGNFLELFGPDGAWKQMFQERSSRMLQALSPKQSPVSSPTRSRSPSRSPSPTFSWLPLKTSPPSSPKAASASISSMSEGDEDEK” here?
The value was “soluble”.

Which “soluble on expression in E. coli” value does the source give for “MGHHHHHHSHMANSAGSMANSAGSMPPLSTIDPSGTRSKNMPIKDNALVMFNGKVYLLAKKGTDVLPSQIDQQNSVSPDTPVRKDTLQTVSSSPVTEISREVVNIVLAKSKSSQMETKSLSNTQLASMANLRAEKNKVEKPSPSTTNPHMNQSSNYLKQSKTLFTNPIFPVGFSTGHNAPRKVTAVIYARKGSVLQSIEKISSSVDATTVTSQQCVFRDQEPKIHNEMASTSDKGAQGRNDKKDSQGRSNKALHLKSDAEFKKIFGLTKDLRVCLTRIPDHLTSGEGFDSFSSLVKSGTYKETEFMVKEGERKQQNFDKKRKAKTNKKMDHIKKRKTENAYNAIINGEANVTGSQLQYFTNFRCVTT” here?
Its value is “not soluble”.

With “GATDSATAAPAAAATTQVQKEAADVLQVAVQGANAMRDIQFARLALFHGQPDSAKKLTDDAAALLAADDASWAKFVKTDAKAKMIADRYVIINASIALSEDYVATPEKESAIQSANEKLAKGDQKGAIDTLRLAGIGVIENQYLMPLNQTRKAVAQSQELLKAGKYYEANLVLKGAEEGIVVDSEMLVAGN” as the sequence, how does the “soluble on expression in E. coli” value read?
The value was “soluble”.

With “SEPQEERETQVAAWLKKIFGDHPIPQYEVNPRTTEILHHLSERNRVRDRDVYLVIEDLKQKASEYESEAKYLQDLLMESVNFSPANLSSTGSRYLNALVDSAVALETKDTSLASFIPAVNDLTSDLFRTKSKSEEIKIELEKLEKNLTATLVLEKCLQEDVKKAELHLSTERAKVDNRRQNMDFLKAKSEEFRFGIKAAEEQLSARGMDASLSHQSLVALSEKLARLKQQTIPLKKKLESYLDLMPNPSLAQVKIEEAKRELDSIEAELTRRVDMMEL” as the sequence, how does the “soluble on expression in E. coli” value read?
Its value is “soluble”.

With “MINSPRVCIQVQSVYIEAQSSPDNERYVFAYTVTIRNLGRAPVQLLGRYWLITNGNGRETEVQGEGVVGVQPLIAPGEEYQYTSGAIIETPLGTMQGHYEMIDENGVPFSIDIPVFRLAVPTLIHMGHHHHHHSH” as the sequence, how does the “soluble on expression in E. coli” value read?
The value was “not soluble”.

For “MGSDKIHHHHHHMLEIGFCTLEDQCPYLKDKRSRIEYKYIENCPKEINNELIKRGWRRFGRYFSRPICKDCDECLSLRILVNEYNFSRSERRVVNKNINTKVILRTPNLSNEHLFLYDKYHRFMEEKKNWKRYDLSFKQYYNLYVDGFMNFGYELAFYIEDKLVCVDLIDILEDGISSIYCFYDPDFSYFSLGKFSLLNEIQIAKKMNLDYIYLGYFVKKCQSLSYKADYTPNEILKGTKELFENEVLWEK”, which “soluble on expression in E. coli” value is on record?
The value was “not soluble”.

Which “soluble on expression in E. coli” value does the source give for “MAHHHHHHMKNKNKYDYLLKLLLVGDSSVGKSSILCRYSDNQFEEKVLSTIGIDFKVKYLKIDNKTIKVGIWDTAGQERFRTLTSAYYRNAHAIILVYDCTVRESFENLDVWINEIDKYSTNKNAIKMLVANKIDKPNHEVTKDEGKNFAFENNMLFCETSAKNDINITYCFEELIQQILNNPSLLELSIVTKNLKLGKKEESRSNCAC” here?
The value was “soluble”.

Which “soluble on expression in E. coli” value does the source give for “MGHHHHHHSHPSIPNPFPELCCSPFTSVLSADLFPKANSRKKQVIKVYSEDETSRALDVPSDITARDVCQLLILKNHYIDDHSWTLFEHLPHIGVERTIEDHELVIEVLSNWGIEEENKLYFRKNYAKYEFFKNP” here?
Its value is “soluble”.

Source: the DeepSol protein solubility set
